± gives the standard deviation of the averaged measurements.
Experiment: total protein half-life in vivo (active degradation + dilution); higher = more stable protein
[1] = E. coli NCM3722 delta-clpP delta-lon delta-hslV, growth: N-lim chemostat, doubling time 6 h
[2] = E. coli NCM3722 delta-clpP, growth: N-lim chemostat, doubling time 6 h
[3] = E. coli NCM3722 delta-hslV, growth: N-lim chemostat, doubling time 6 h
[4] = E. coli NCM3722 delta-lon, growth: N-lim chemostat, doubling time 6 h
[5] = E. coli NCM3722 delta-smpB, growth: N-lim chemostat, doubling time 6 h
[6] = wild type E. coli NCM3722, growth: C-lim chemostat, doubling time 3 h
[7] = wild type E. coli NCM3722, growth: C-lim chemostat, doubling time 6 h
[8] = wild type E. coli NCM3722, growth: C-lim chemostat, doubling time 12 h
[9] = wild type E. coli NCM3722, growth: N-lim chemostat, doubling time 6 h
[10] = wild type E. coli NCM3722, growth: N-lim chemostat, doubling time 12 h
[11] = wild type E. coli NCM3722, growth: P-lim chemostat, doubling time 6 h
[12] = wild type E. coli NCM3722, growth: P-lim chemostat, doubling time 12 h

With “MSESLRIIFAGTPDFAARHLDALLSSGHNVVGVFTQPDRPAGRGKKLMPSPVKVLAEEKGLPVFQPVSLRPQENQQLVAELQADVMVVVAYGLILPKAVLEMPRLGCINVHGSLLPRWRGAAPIQRSLWAGDAETGVTIMQMDVGLDTGDMLYKLSCPITAEDTSGTLYDKLAELGPQGLITTLKQLADGTAKPEVQDETLVTYAEKLSKEEARIDWSLSAAQLERCIRAFNPWPMSWLEIEGQPVKVWKASVIDTATNAAPGTILEANKQGIQVATGDGILNLLSLQPAGKKAMSAQDLLNSRREWFVPGNRLV” the “total protein half-life in vivo” value [1] was 5.19 ± 0.35 h, the “total protein half-life in vivo” value [2] was 4.68 ± 0.25 h and the “total protein half-life in vivo” value [3] was 5.38 ± 1 h. For the same sequence, the “total protein half-life in vivo” value [4] was 6.55 ± 0.13 h, the “total protein half-life in vivo” value [5] was 4.49 ± 0.29 h and the “total protein half-life in vivo” value [6] was 3.118 ± 0.012 h. For the same sequence, the “total protein half-life in vivo” value [7] was 5.91 ± 0.49 h, the “total protein half-life in vivo” value [8] was 8.28 ± 1.2 h and the “total protein half-life in vivo” value [9] was 4.84 ± 0.38 h. For the same sequence, the “total protein half-life in vivo” value [10] was 7.62 ± 0.9 h, the “total protein half-life in vivo” value [11] was 5.62 ± 0.28 h and the “total protein half-life in vivo” value [12] was 10.1 ± 0.96 h.

In the case of “MSKLFWAMLSFITRLPVPRRWSQGLDFEHYSRGIITFPLIGLLLGAISGLVFMVLQAWCGAPLAALFSVLVLVLMTGGFHLDGLADTCDGVFSARSRDRMLEIMRDSRLGTHGGLALIFVVLAKILVLSELALRGESILASLAAACAVSRGTAALLMYRHRYAREEGLGNVFIGKIDGRQTCVTLGLAAIFAAVLLPGMHGVAAMVVTMVAIFILGQLLKRTLGGQTGDTLGAAIELGELVFLLALL”, the “total protein half-life in vivo” value [1] is reported as 7.472 ± 0.028 h, the “total protein half-life in vivo” value [2] is reported as 6.699 ± 0.053 h and the “total protein half-life in vivo” value [3] is reported as 6.15 ± 0.36 h. The “total protein half-life in vivo” value [4] was 6.52 h, the “total protein half-life in vivo” value [5] was greater than 8 h and the “total protein half-life in vivo” value [6] was 3.48 ± 0.11 h. The “total protein half-life in vivo” value [7] was 5.85 ± 0.84 h, the “total protein half-life in vivo” value [8] was 12.7 ± 1.4 h and the “total protein half-life in vivo” value [9] was 5.87 ± 0.4 h. The “total protein half-life in vivo” value [10] was 11.3 h, the “total protein half-life in vivo” value [11] was 5.6 h and the “total protein half-life in vivo” value [12] was 12.4 ± 1.2 h.

For “MPDAVQAPYPAYRPEPNMQTITIAPPKRSWFSLLSWAVVLAVLVVSWQGAEMAPLTLIKDGGNMATFAADFFPPDFSQWQDYLTEMAVTLQIAVWGTALAVVLSIPFGLMSAENLVPWWVYQPVRRLMDACRAINEMVFAMLFVVAVGLGPFAGVLACWRCLSTPPACSPSCFPKRWKRLSPARWKAFAPPVPTSSKRSSTACCHR [P0DP69]”, the “total protein half-life in vivo” value [11] was 0.274 ± 0.32 h and the “total protein half-life in vivo” value [12] was 0.661 ± 0.64 h.

With “MRKYRLSEEQRAFSYQEDGTKKNVLLRQIIAISDFNDVIAGTAGGWIDRETVLAQEGNCWIYDQNAIAFGGAVISGNTRITGTSVLWGEVYATDNVWIDNSEISQGAYISDSVTIHDSLVYGQCRIFGHALIDQHSMIVAAQGLTPDHQLLLQIYDRARVSASRIVHQAQIYGDAVVRYAFIEHRAEVFDFASIEGNEENNVWLCDCAKVYGHAQVKAGIEEDAIPTIHYSSQVAEYAIVEGNCVLKHHVLVGGNAVVRGGPILLDEHVVIQGESRITGAVIIENHVELTDHAVVEAFDGDTVHVRGPKVINGEERITRTPLAGLL” the “total protein half-life in vivo” value [2] was 4.51 h, the “total protein half-life in vivo” value [3] was 3.02 h and the “total protein half-life in vivo” value [5] was 2.62 ± 0.092 h. For the same sequence, the “total protein half-life in vivo” value [6] was 2.39 h, the “total protein half-life in vivo” value [8] was 6.16 h and the “total protein half-life in vivo” value [9] was 3.27 h. The “total protein half-life in vivo” value [10] was 5.74 h and the “total protein half-life in vivo” value [12] was 8.26 ± 1 h.

With “MQTQIKVRGYHLDVYQHVNNARYLEFLEEARWDGLENSDSFQWMTAHNIAFVVVNININYRRPAVLSDLLTITSQLQQLNGKSGILSQVITLEPEGQVVADALITFVCIDLKTQKALALEGELREKLEQMVK” the “total protein half-life in vivo” value [1] was 4.69 ± 0.88 h, the “total protein half-life in vivo” value [2] was 3.29 ± 0.61 h and the “total protein half-life in vivo” value [3] was 3.46 ± 0.25 h. For the same sequence, the “total protein half-life in vivo” value [5] was 3.35 ± 0.049 h, the “total protein half-life in vivo” value [6] was 3.22 ± 0.17 h and the “total protein half-life in vivo” value [7] was 5.29 ± 0.48 h. For the same sequence, the “total protein half-life in vivo” value [8] was 7.87 ± 0.63 h, the “total protein half-life in vivo” value [9] was 3.29 ± 0.11 h and the “total protein half-life in vivo” value [10] was 4.77 ± 0.72 h. For the same sequence, the “total protein half-life in vivo” value [11] was 5.365 ± 0.043 h and the “total protein half-life in vivo” value [12] was 9.67 ± 0.54 h.

With “MKTKVAAIYGKRDVRLRVFELPEITDNELLVSVISDSVCLSTWKAALLGSEHKRVPDDLENHPVITGHECAGVIVEVGKNLTGKYKKGQRFVLQPAMGLPSGYSAGYSYEYFGGNATYMIIPEIAINLGCVLPYHGSYFAAASLAEPMCCIIGAYHANYHTTQYVYEHRMGVKPGGNIALLACAGPMGIGAIDYAINGGIQPSRVVVVDIDDKRLAQVQKLLPVELAASKGIELVYVNTKGMSDPVQMLRALTGDAGFDDIFVYAAVPAVVEMADELLAEDGCLNFFAGPTDKNFKVPFNFYNVHYNSTHVVGTSGGSTDDMKEAIALSATGQLQPSFMVTHIGGLDAVPETVLNLPDIPGGKKLIYNGVTMPLTAIADFAEKGKTDPLFKELARLVEETHGIWNEQAEKYLLAQFGVDIGEAAQ” the “total protein half-life in vivo” value [1] was 6.04 ± 0.11 h.

With “MQDAAPRLTFTLRDEERLMMKIGVFVPIGNNGWLISTHAPQYMPTFELNKAIVQKAEHYHFDFALSMIKLRGFGGKTEFWDHNLESFTLMAGLAAVTSRIQIYATAATLTLPPAIVARMAATIDSISGGRFGVNLVTGWQKPEYEQMGIWPGDDYFSRRYDYLTEYVQVLRDLWGTGKSDFKGDFFTMNDCRVSPQPSVPMKVICAGQSDAGMAFSARYADFNFCFGKGVNTPTAFAPTAARMKQAAEQTGRDVGSYVLFMVIADETDDAARAKWEHYKAGADEEALSWLTEQSQKDTRSGTDTNVRQMADPTSAVNINMGTLVGSYASVARMLDEVASVPGAEGVLLTFDDFLSGIETFGERIQPLMQCRAHLPALTQEVA” the “total protein half-life in vivo” value [1] was 5.26 ± 0.37 h, the “total protein half-life in vivo” value [2] was 3.06 ± 0.12 h and the “total protein half-life in vivo” value [3] was 0.715 ± 0.26 h. For the same sequence, the “total protein half-life in vivo” value [4] was 0.661 ± 0.0067 h, the “total protein half-life in vivo” value [5] was 0.481 ± 0.11 h and the “total protein half-life in vivo” value [9] was 0.658 ± 0.16 h. The “total protein half-life in vivo” value [10] was 0.664 ± 0.16 h.

For “MAKNRSRRLRKKMHIDEFQELGFSVAWRFPEGTSEEQIDKTVDDFINEVIEPNKLAFDGSGYLAWEGLICMQEIGKCTEEHQAIVRKWLEERKLDEVRTSELFDVWWD”, the “total protein half-life in vivo” value [1] was 5.96 ± 0.18 h, the “total protein half-life in vivo” value [2] was 6.44 ± 1.1 h and the “total protein half-life in vivo” value [3] was 6.42 ± 0.59 h. The “total protein half-life in vivo” value [4] was 6.34 ± 0.93 h, the “total protein half-life in vivo” value [5] was 5.56 ± 0.31 h and the “total protein half-life in vivo” value [6] was 3.43 ± 0.076 h. The “total protein half-life in vivo” value [7] was 5.41 ± 0.22 h, the “total protein half-life in vivo” value [8] was 9.8 ± 0.27 h and the “total protein half-life in vivo” value [9] was 5.26 h. For the same sequence, the “total protein half-life in vivo” value [10] was 12.6 ± 0.72 h, the “total protein half-life in vivo” value [11] was 5.22 ± 0.22 h and the “total protein half-life in vivo” value [12] was 11.7 ± 0.92 h.

For “MMYRIRNWLVATLLLLCTPVGAATLSDIQVSNGNQQARITLSFIGDPDYAFSHQSKRTVALDIKQTGVIQGLPLLFSGNNLVKAIRSGTPKDAQTLRLVVDLTENGKTEAVKRQNGSNYTVVFTINADVPPPPPPPPVVAKRVETPAVVAPRVSEPARNPFKTESNRTTGVISSNTVTRPAARATANTGDKIIIAIDAGHGGQDPGAIGPGGTREKNVTIAIARKLRTLLNDDPMFKGVLTRDGDYFISVMGRSDVARKQNANFLVSIHADAAPNRSATGASVWVLSNRRANSEMASWLEQHEKQSELLGGAGDVLANSQSDPYLSQAVLDLQFGHSQRVGYDVATSMISQLQRIGEIHKRRPEHASLGVLRSPDIPSVLVETGFISNNSEERLLASDDYQQQLAEAIYKGLRNYFLAHPMQSAPQGATAQTASTVTTPDRTLPN”, the “total protein half-life in vivo” value [1] was 2.15 ± 0.036 h, the “total protein half-life in vivo” value [2] was 2.05 ± 0.41 h and the “total protein half-life in vivo” value [3] was 2.71 ± 1.6 h. For the same sequence, the “total protein half-life in vivo” value [4] was 1.97 ± 0.085 h, the “total protein half-life in vivo” value [5] was 1.74 ± 0.34 h and the “total protein half-life in vivo” value [6] was 1.64 ± 0.18 h. For the same sequence, the “total protein half-life in vivo” value [7] was 2.63 ± 0.23 h, the “total protein half-life in vivo” value [8] was 4.87 ± 1.5 h and the “total protein half-life in vivo” value [9] was 2.54 ± 0.74 h. For the same sequence, the “total protein half-life in vivo” value [10] was 2.65 ± 0.31 h, the “total protein half-life in vivo” value [11] was 3.4 ± 3.2 h and the “total protein half-life in vivo” value [12] was 2.92 ± 1.1 h.
